The values below come from patent publication US20030059419.

Series [1] concerns the target T1, GST-I-TRAF (human I-TRAF as a chimera protein with glutathione S transferase, purified from E. coli), Q92844.
T1 chain: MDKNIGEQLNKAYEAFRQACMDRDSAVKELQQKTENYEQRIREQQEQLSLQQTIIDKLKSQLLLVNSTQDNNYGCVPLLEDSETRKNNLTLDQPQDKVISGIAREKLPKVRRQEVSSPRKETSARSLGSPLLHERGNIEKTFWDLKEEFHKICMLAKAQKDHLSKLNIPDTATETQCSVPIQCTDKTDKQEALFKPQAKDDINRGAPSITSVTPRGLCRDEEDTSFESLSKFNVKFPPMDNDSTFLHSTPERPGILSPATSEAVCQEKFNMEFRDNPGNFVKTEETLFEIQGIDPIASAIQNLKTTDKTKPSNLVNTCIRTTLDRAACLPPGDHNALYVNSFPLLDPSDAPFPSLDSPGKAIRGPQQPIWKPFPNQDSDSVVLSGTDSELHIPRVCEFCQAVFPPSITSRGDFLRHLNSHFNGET

The target of series [2] is GST-IκB-αN protein (AA), GST-IκB-αN with the No. 32 and No. 36 serine residues replaced by alanine [GST: P08515].
In series [3] the target is GST-IκB-αN protein (WT), amino acids 1-72 of IκB-α fused to GST [GST: P08515].
Series [4] concerns the target T2, Myc-I-TRAF (human I-TRAF, full length, with a Myc epitope added to the N-terminal), Q92844.
T2 chain: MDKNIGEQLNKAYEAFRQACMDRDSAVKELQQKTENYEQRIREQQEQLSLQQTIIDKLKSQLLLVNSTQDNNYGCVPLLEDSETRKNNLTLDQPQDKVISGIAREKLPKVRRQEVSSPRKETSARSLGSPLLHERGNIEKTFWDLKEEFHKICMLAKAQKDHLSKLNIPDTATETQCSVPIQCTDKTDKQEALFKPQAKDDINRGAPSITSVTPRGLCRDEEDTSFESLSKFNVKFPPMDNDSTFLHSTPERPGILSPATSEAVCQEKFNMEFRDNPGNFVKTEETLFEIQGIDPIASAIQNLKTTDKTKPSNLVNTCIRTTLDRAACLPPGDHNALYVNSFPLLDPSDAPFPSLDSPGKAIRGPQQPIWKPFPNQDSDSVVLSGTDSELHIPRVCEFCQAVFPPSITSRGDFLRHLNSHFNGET

For series [5], the target named is Myc-I-TRAF (1-247) defective mutant, human I-TRAF amino acids No. 1-247 with N-terminal Myc, Q92844.

B1: Flag-IKK-i (human IKK-i with a Flag epitope linked to the N-terminal) (protein)
chain: MQSTANYLWHTDDLLGQGATASVYKARNKKSGELVAVKVFNTTSYLRPREVQVREFEVLRKLNHQNIVKLFAVEETGGSRQKVLVMEYCSSGSLLSVLESPENAFGLPEDEFLVVLRCVVAGMNHLRENGIVHRDIKPGNIMRLVGEEGQSIYKLTDFGAARELDDDEKFVSVYGTEEYLHPDMYERAVLRKPQQKAFGVTVDLWSIGVTLYHAATGSLPFIPFGGPRRNKEIMYRITTEKPAGAIAGAQRRENGPLEWSYTLPITCQLSLGLQSQLVPILANILEVEQAKCWGFDQFFAETSDILQRVVVHVFSLSQAVLHHIYIHAHNTIAIFQEAVHKQTSVAPRHQEYLFEGHLCVLEPSVSAQHIAHTTASSPLTLFSTAIPKGLAFRDPALDVPKFVPKVDLQADYNTAKGVLGAGYQALRLARALLDGQELMFRGLHWVMEVLQATCRRTLEVARTSLLYLSSSLGTERFSSVAGTPEIQELKAAAELRSRLRTLAEVLSRCSQNITETQESLSSLNRELVKSRDQVHEDRSIQQIQCCLDKMNFIYKQFKKSRMRPGLGYNEEQIHKLDKVNFSHLAKRLLQVFQEECVQKYQASLVTHGKRMRVVHETRNHLRLVGCSVAACNTEAQGVQESLSKLLEELSHQLLQDRAKGAQASPPPIAPYPSPTRKDLLLHMQELCEGMKLLASDLLDNNRIIERLNRVPAPPDV
As to B1, in series [1], the “in vitro kinase assay with purified GST-I-TRAF (1.0 µg) added to the anti-Flag immunoprecipitate” value is recorded as “in cells in which Flag-IKK-i was expressed, phosphorylation of GST-I-TRAF was observed”. Besides, the “in vitro kinase assay ([γ-32P]ATP, 30° C., 20 minutes, SDS-PAGE, autoradiography)” value in series [2] is listed as “IKK-i did not phosphorylate GST-IκB-αN protein (AA)”; in series [3] it was “IKK-i phosphorylated GST-IκB-αN protein (WT)”. The “in vitro kinase assay ([γ-32P]ATP) on immunoprecipitates” value in series [4] was “Bands of phosphorylated Myc-I-TRAF were detected in both of immunoprecipitates with anti-Flag antibody (lane 2) or anti-Myc antibody (lane 4)”. The “in vitro kinase assay on immunoprecipitates, I-TRAF deletion mutants” value was “phosphorylations of FL (lanes 4 and 8) and Myc-I-TRAF (1-247)(lanes 2 and 6) were confirmed” in series [4]; “phosphorylations of FL (lanes 4 and 8) and Myc-I-TRAF (1-247)(lanes 2 and 6) were confirmed” in series [5].

B2: mutant IKK-i (K38A), Flag-tagged human IKK-i with the No. 38 lysine replaced by alanine (protein)
chain: MQSTANYLWHTDDLLGQGATASVYKARNKKSGELVAVAVFNTTSYLRPREVQVREFEVLRKLNHQNIVKLFAVEETGGSRQKVLVMEYCSSGSLLSVLESPENAFGLPEDEFLVVLRCVVAGMNHLRENGIVHRDIKPGNIMRLVGEEGQSIYKLTDFGAARELDDDEKFVSVYGTEEYLHPDMYERAVLRKPQQKAFGVTVDLWSIGVTLYHAATGSLPFIPFGGPRRNKEIMYRITTEKPAGAIAGAQRRENGPLEWSYTLPITCQLSLGLQSQLVPILANILEVEQAKCWGFDQFFAETSDILQRVVVHVFSLSQAVLHHIYIHAHNTIAIFQEAVHKQTSVAPRHQEYLFEGHLCVLEPSVSAQHIAHTTASSPLTLFSTAIPKGLAFRDPALDVPKFVPKVDLQADYNTAKGVLGAGYQALRLARALLDGQELMFRGLHWVMEVLQATCRRTLEVARTSLLYLSSSLGTERFSSVAGTPEIQELKAAAELRSRLRTLAEVLSRCSQNITETQESLSSLNRELVKSRDQVHEDRSIQQIQCCLDKMNFIYKQFKKSRMRPGLGYNEEQIHKLDKVNFSHLAKRLLQVFQEECVQKYQASLVTHGKRMRVVHETRNHLRLVGCSVAACNTEAQGVQESLSKLLEELSHQLLQDRAKGAQASPPPIAPYPSPTRKDLLLHMQELCEGMKLLASDLLDNNRIIERLNRVPAPPDV
As to B2, in series [1], the “in vitro kinase assay with purified GST-I-TRAF (1.0 µg) added to the anti-Flag immunoprecipitate” value is “No phosphorylation was observed with the K38A mutant”. The “in vitro kinase assay ([γ-32P]ATP, 30° C., 20 minutes, SDS-PAGE, autoradiography)” value in series [3] is on record as “K38A-IKK-i did not phosphorylate GST-IκB-αN protein (WT)”.
